Assay results as given in IntAct's records for PubMed 20181956.

B1: Trinucleotide repeat-containing gene 6C protein (Homo sapiens), Q9HCJ0 (parent)
chain: MEEKKKKKQEEKKKKEGAQKKAADQKTKVPEPTKTCSSQPQPAGTSTSTSTSTISSSNNGKRASASGQQPAASRYLPREVPPRFRQQEQKQLLKRGQPLPTGTLTSVSPTQGAGPAGVSPPPLPGAGTQHHPSKLQPDLSHSGLADHYENSHWGQQPTYRSEANCSWDKVIIDRTDKEAWPSITGTETESASECTTDTDSASNCGSENSSMATGSAQGNFTGHTKKTNGNNGTNGALVQSPSNQSALGAGGANSNGSAARVWGVATGSSSGLAHCSVSGGDGKMDTMIGDGRSQNCWGASNSNAGINLNLNPNANPAAWPVLGHEGTVATGNPSSICSPVSAIGQNMGNQNGNPTGTLGAWGNLLPQESTEPQTSTSQNVSFSAQPQNLNTDGPNNTNPMNSSPNPINAMQTNGLPNWGMAVGMGAIIPPHLQGLPGANGSSVSQVSGGSAEGISNSVWGLSPGNPATGNSNSGFSQGNGDTVNSALSAKQNGSSSAVQKEGSGGNAWDSGPPAGPGILAWGRGSGNNGVGNIHSGAWGHPSRSTSNGVNGEWGKPPNQHSNSDINGKGSTGWESPSVTSQNPTVQPGGEHMNSWAKAASSGTTASEGSSDGSGNHNEGSTGREGTGEGRRRDKGIIDQGHIQLPRNDLDPRVLSNTGWGQTPVKQNTAWEFEESPRSERKNDNGTEAWGCAATQASNSGGKNDGSIMNSTNTSSVSGWVNAPPAAVPANTGWGDSNNKAPSGPGVWGDSISSTAVSTAAAAKSGHAWSGAANQEDKSPTWGEPPKPKSQHWGDGQRSNPAWSAGGGDWADSSSVLGHLGDGKKNGSGWDADSNRSGSGWNDTTRSGNSGWGNSTNTKANPGTNWGETLKPGPQQNWASKPQDNNVSNWGGAASVKQTGTGWIGGPVPVKQKDSSEATGWEEPSPPSIRRKMEIDDGTSAWGDPSNYNNKTVNMWDRNNPVIQSSTTTNTTTTTTTTTSNTTHRVETPPPHQAGTQLNRSPLLGPVSSGWGEMPNVHSKTENSWGEPSSPSTLVDNGTAAWGKPPSSGSGWGDHPAEPPVAFGRAGAPVAASALCKPASKSMQEGWGSGGDEMNLSTSQWEDEEGDVWNNAASQESTSSCSSWGNAPKKGLQKGMKTSGKQDEAWIMSRLIKQLTDMGFPREPAEEALKSNNMNLDQAMSALLEKKVDVDKRGLGVTDHNGMAAKPLGCRPPISKESSVDRPTFLDKDGGLVEEPTPSPFLPSPSLKLPLSHSALPSQALGGIASGLGMQNLNSSRQIPSGNLGMFGNSGAAQARTMQQPPQPPVQPLNSSQPSLRAQVPQFLSPQVQAQLLQFAAKNIGLNPALLTSPINPQHMTMLNQLYQLQLAYQRLQIQQQMLQAQRNVSGSMRQQEQQVARTITNLQQQIQQHQRQLAQALLVKQPPPPPPPPHLSLHPSAGKSAMDSFPSHPQTPGLPDLQTKEQQSSPNTFAPYPLAGLNPNMNVNSMDMTGGLSVKDPSQSQSRLPQWTHPNSMDNLPSAASPLEQNPSKHGAIPGGLSIGPPGKSSIDDSYGRYDLIQNSESPASPPVAVPHSWSRAKSDSDKISNGSSINWPPEFHPGVPWKGLQNIDPENDPDVTPGSVPTGPTINTTIQDVNRYLLKSGGSSPPSSQNATLPSSSAWPLSASGYSSSFSSIASAPSVAGKLSDIKSTWSSGPTSHTQASLSHELWKVPRNSTAPTRPPPGLTNPKPSSTWGASPLGWTSSYSSGSAWSTDTSGRTSSWLVLRNLTPQIDGSTLRTLCLQHGPLITFHLNLTQGNAVVRYSSKEEAAKAQKSLHMCVLGNTTILAEFAGEEEVNRFLAQGQALPPTSSWQSSSASSQPRLSAAGSSHGLVRSDAGHWNAPCLGGKGSSELLWGGVPQYSSSLWGPPSADDSRVIGSPTPLTTLLPGDLLSGESL

Variants of: B1
Settings: with pabp1_human PABPC1, P11940
Sequence of pabp1_human PABPC1, P11940 (P11940 whole entry): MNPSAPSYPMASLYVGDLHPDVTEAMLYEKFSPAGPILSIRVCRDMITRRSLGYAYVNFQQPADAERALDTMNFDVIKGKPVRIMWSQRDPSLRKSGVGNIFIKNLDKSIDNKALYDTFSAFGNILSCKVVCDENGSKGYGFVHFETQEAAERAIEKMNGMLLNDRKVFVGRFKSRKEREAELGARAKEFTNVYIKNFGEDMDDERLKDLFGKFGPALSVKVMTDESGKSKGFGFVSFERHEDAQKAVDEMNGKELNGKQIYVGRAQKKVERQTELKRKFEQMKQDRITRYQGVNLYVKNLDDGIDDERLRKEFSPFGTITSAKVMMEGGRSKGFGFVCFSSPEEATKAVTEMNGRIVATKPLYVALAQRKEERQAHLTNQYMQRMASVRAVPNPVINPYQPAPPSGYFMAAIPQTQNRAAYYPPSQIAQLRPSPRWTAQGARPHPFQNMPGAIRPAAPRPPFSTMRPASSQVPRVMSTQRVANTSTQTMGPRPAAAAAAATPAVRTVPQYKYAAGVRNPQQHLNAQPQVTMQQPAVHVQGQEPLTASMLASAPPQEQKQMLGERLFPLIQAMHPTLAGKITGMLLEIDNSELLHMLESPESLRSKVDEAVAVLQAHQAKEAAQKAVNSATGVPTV

Row | effect of a mutation on the interaction | Variant
1 | decreasing interaction | P1593A
2 | decreasing interaction | W1592A
3 | disrupting interaction | F1596A
4 | decreasing interaction | P1601A

Variants of: B1
Settings: with pabp1_human PABPC1, P11940
Remark: another data set of the same source

Row | effect of a mutation on the interaction | Variant
5 | decreasing interaction | G1599A
6 | decreasing interaction | W1602A
